Data published in the DeepSol protein solubility set.

Experiment: soluble on expression in E. coli; label from the status in PepcDB or PDB records

| Sequence | soluble on expression in E. coli |
| --- | --- |
| MSNNDCISTDKVDLDKKQIKKFLKQINISQLTKMIQFIDNKLLSDWDFNCLTYFDESEYPFFDINLSLICTIDHNIPINIIINFLCFVEKQYNNVPYHNTIHATMVTQKFFCLAKKLGIYDDLEYKIKLVMFISGICHDIGHPGYNNLFFVNSLHPLSIIYNDISVLENYHASITFKILQLNQCNILKNFSEKDFRMMRSYIIELILSTDMKHHFEIISKFRIRRENEDFDYIKNSDDLLILTKMIIKSADISHGSVSWSEHYCWCQRVLSEFYTQGDEELKNKMPLSPLCDRTKHNEVCKSQITFLKFVVMPLFEELSHIDNNKFIKSFCLKRLNSNCIMWDTLMKEEKTIE | soluble |
| MGSDKIHHHHHHMFMPEAVNWNRPIKVGVSSCLLGEKVRYDGGHKHDHYITDVLGKFFTFVPVCPEVGCGMPVPREAMRLEGDPEHPRLVTNKTRIDKTEQMRAFCKQKVTELADEELCGFIFKKDSPSSGLFRVKVHNEGMPTRSGSGLFAAAVVKHFPLLPAEEEGRLNDAAIRENFIERIFCYRRWKDFLLDSPDLGHLVTFHARHKLLILAHSTSIYREMGSLVAHGKGMSWPELAQSYEALFMKALALHATVKKNTNVLTHIMGYFKRDLSPAEKEELLGVIKEYHDRLVPLIVPLTLLKHYVGKYGQSYLQQQYYLSPHPAELMLRNHV | not soluble |
| MGSDKIHHHHHHMMTQLSAPTLTKDPLTTQDRQIIATIVNQSDYSKNCKPEDVVTIWISEDDTTVWVKMIHGYARYHKQSFKRAVAEVKASLSAPVKCNHKEERELKQAAEKIGLLGDCDWLSLSVQYYPDKVIGHAGCYTSQKPQLLTPLAEWDFTLPKWNMPAAICPDCGGHGCGNCGYRGTRAEDLCKPVDGYRLTYVGRTDLQTAHNVYLDGEFLGILFKVRNADELWENDPKTYYWRCGDGVRYWSVKEAVEVLSRTTAPIELPQVCRELVAA | not soluble |
| MGSDKIHHHHHHMWTEIDTQISRVTGERFQSQQRRSVSGGCINQGYAVADGTLTYFVKLNQASQVAMFEAEALGLEQMLTTNSIRVPKPICWGIAGNSGYIVLEWLEMGSGNTNSWEEMGRNLAKMHKATSQKGYGWDMNNTIGSTPQINTWTEDWTEFYSKHRLGYQFQLARRRGGSFPKQDELLGALPELLADHEVQPSLVHGDLWGGNAGCTVSGEPVIFDPATYFGDREVDIAMTELFGGFPAAFYKGYNQVFPLDAGYEKRKTLYNLYHILNHFNLFGGGYASQANRMIEQILR | not soluble |
| MGSDKIHHHHHHMMIDTPAVLIDRERLTANISRMAAHAGAHEIALRPHVKTHKIIEIAQMQVDAGARGITCATIGEAEIFAGAGFTDIFIAYPLYLTDHAVQRLNAIPGEISIGVDSVEMAQATAGLREDIKALIEVDSGHRRSGVTATASELSQIREALGSRYAGVFTFPGHSYGPGNGEQAAADELQALNNSVQRLAGGLTSGGSSPSAQFTDAIDEMRPGVYVFNDSQQITSGACTEKQVAMTVLSTVVSRNVSDRRIILDAGSKILSTDKPAWIDGNGFVLGNPEARISALSEHHATIFWPDKVLLPVIGEQLNIVPNHACNVINLVDEVYVREADGTFRTWKVVARGRNN | not soluble |
| MANELTWHDVLAEEKQQPYFLNTLQTVASERQSGVTIYPPQKDVFNAFRFTELGDVKVVILGQDPYHGPGQAHGLAFSVRPGIAIPPSLLNMYKELENTIPGFTRPNHGYLESWARQGVLLLNTVLTVRAGQAHSHASLGWETFTDKVISLINQHREGVVFLLWGSHAQKKGAIIDKQRHHVLKAPQPSPLSAHRGFFGCNHFVLANQWLEQHGETPIDWMPVLPAESE | soluble |
| MGSDKIHHHHHHMRKVVEVSGVRKSFGELRVLDKVDFYAEEGDFKVIVGENGSGKSTLLKIMIGLLLPDDGEVKVLGVDVKKHWKKLSARIGVVLANERSLYWKLTAWENLDIFGGVYGVPKKVRRERMEELLKRFGLFEYKDKPVEEFSTGMRKKLMICKALIHDPEVLFIDEILNGLDPPSVREMVGFLDERNRRGLTIVMISHVLHVLPENACVVLLRNGRVQMEVRYKDIRSERSEVYEVFENLIRGRNMDEEDTPSGSEGDEDKA | not soluble |
| MSIQIPRGTQDILPGTVELWQYIEGQAREICRRYNYKEIRTPIFEHTELFLRGVGDTTDIVQKEMYSFQDRGERSLTLRPEGTAPVVRSYVENKMFGDATQPTKLYYIGQMFRYERPQAGRYRQFVQFGIEAIGSNDPAIDAEVIALAVEFYRGMGLKNIKVVLNSLGDAASRQAHRDALIAHFEPRIGEFCSDCQSRLEKNPLRILDCKKDRNHELMGTAPSITEYLNEDSAVYYDKVQELLTMMDVPFEKDPNLVRGLDYYQHTVFEIMSEAEGFGAITTLSGGGRYNGLVQEIGGPEMPGIGFAMSIERLIMALKAENIELPIEHSIDCYVVALGEKAKDHAAKVAFDLRKAGLAVEKDYLDRKMKAQFKSADRLKAKFVAVLGEDELDKGIINLKDMATGEQEEVALDVFASYVAEKLI | soluble |
| SNAMSKRVLMVVTNHTTITDDHKTGLWLEEFAVPYLVFQEKGYDVKVASIQGGEVPLDPRSINEKDPSWAEAEAALKHTARLSKDDAHGFDAIFLPGGHGTMFDFPDNETLQYVLQQFAEDGRIIAAVCHGPSGLVNATYKDGTPIVKGKTVTSFTDEEEREVGLDVHMPFLLESTLRLRGANFVRGGKWTDFSVRDGNLITGQNPQSSRSTAEKVVAALEERE | soluble |
| GSMDCEVNNGSSLRDECITNLLVFGFLQSCSDNSFRRELDALGHELPVLAPQWEGYDELQTDGNRSSHSRLGRIEADSESQEDIIRNIARHLAQVGDSMDRSIPPGLVNGLALQLRNTSRSEEDRNRDLATALEQLLQAYPRDMEKEKTMLVLALLLAKKVASHTPSLLRDVFHTTVNFINQNLRTYVRSLARNGMD | soluble |
| MGSDKIHHHHHHMNTYFDNATSSYPKPDAMRQALAYFYDVPVGSYGRSRDRETLRVTSEVEELRDALADLIGVSESAHICFADNATTGINTILRGSLQAGCSVLVSPMEHNAVMRPLQCLADTIGLKIALMPSMPDGRVDTDRLVSAIPTDTALAVVNLESNVNGLVQPIEEIARLLTQERGIPILADATQYLGTSRLKADELGLAYVAFTGHKGLLGPSGTGGFYIRDPRSVHPLTTGGNGLHSADWTVGVEMPERFMAGTVNVLGLTALLASVRQLPPFRISRDAWKQCMQQMQRFPGLRVYGAADPIEQGYLCSLTHDRLTPARIGDALYEAFDIVTRTGIHCAPLAHRSIGTFATGTVRLSLSPYHEEADLEYLLNALSHVLRS | not soluble |
| MGSDKIHHHHHHVSENTLKPQVNKLLAALPTNDYERLIPHLKLVSLPTRQVIYEPGEPIKQVYFPQNAVVSIVTGMKDGSTVEVGIVSNEGMVGIPVILGGSTTTTKAFVQVAGSGVQIDADVLRTEFNRGGAIQNLLLRYIRATYTELTQGCACNRLHTLEERLARWLLTVSDRLESEEFPLTQEFIAQMLGVRRSGVTVAASALSRAGMISYQRGQINILNREDLEETSCECYRVIQNEFARLLKNQPKRDRR | not soluble |
| RLAVGDEITAAGELLAGGKILAIKGIGGFHLAVDASNEAAVRRLRSRKGREEKPFAVMVRDLAAARALCDISPEEKAALASPQAPIVLLRARQGLSLAPSIAPGNDRLGVMLPYSPLHWLLLREGPKVLVMTSANFSEEPLVADNAEALERLAGIADAFLMHDRPIARRCDDSVVMSMAGAVRLIRRSRGYAPAPVRLAES | not soluble |
| MAHHHHHHMKAKGPVKIVLFGAPGVGKGTFAEILSKKEKLKHINMGSILRDEIKNKTTIGREIHKVVTSGNLVADELVVKIVKGEIAKVTAQDGHFKGFILDGFPRNLLQCKQLVEITSIDLFVNIHMPRHILLKKIMGRRICHECNRNFNIAHIRDDPYDMPPILPPPECEKCKGNPKLQRRSDDEEEIVAHRLDTYESTNSHLINFFKNSNCNLVDFEIQRGLRDFDSFYRVVGQHL | not soluble |
| MGSDKIHHHHHHMELKILVTGGNVFVPGRLNAHFSTVVYLEHKDRRIIIDPGNLSSMDELEEKFSELGISPDDITDVLFTHVHLDHIFNSVLFENATFYVHEVYKTKNYLSFGTIVGRIYSKVISSWKNVVLLKGEESLFDEKVKVFHTPWHAREHLSFLLDTENAGRVLITGDITPNRLSYYDIIKGYGSVQVKNFLDRVGRIDLLVFPHDAPLKPEVKK | soluble |
| MKAMHVAQPAVVLASSRGIASFVCEYASPGKATEVRVTVLRQADSQVTEVCAATYMMGNELTFLDDSICTGTSSGNQVNLTIQGLRAMDTGLYICKVELMYPPPYYLGIGNGTQIYVIDPEPSPDSDLVPR | soluble |
| MLPKANRIPYAMTVHGDTRIDNYYWLRDDTRSQPEVLDYLHQENEYGRKVMTSQQALQDRILKEIIDRIPPREVSAPYVKNGYRYRYIYEPGCEYAIYQRQSALSEEWDVWETLLDANQRAAHSEFYTLGGLAITPDNTIMALAEDYLSRRQYGLRFRNLESGNWYPELLDNVAPEFVWANDSLTLYYVRKHKKTLLPYQVWRHTIGTPSSQDELVYEEKDDTFYVSLHKTTSQHYVVIHLASATTSEVLLLDAELADAEPFSFLPRRKDHEYSLDHYQHKFYLRSNRNGKNFGLYRTRVRNENAWEELIPPREHIMLEGFTLFTDWLVVEERQRGLTSLRQINRKTREVIGIAFDDPAYVTWLAYNPEPETSRLRYGYSSMTTPDTLFELDMDTGERRVLKQTEVPGFDSGCYQSEHLWITARDGVEVPVSLVYHQKYFRKGQNPLLVYGYGSYGSSIDADFSSSRLSLLDRGFVYAIVHVRGGGELGQQWYEDGKFLKKRNTFNDYLDACDALLKLGYGSPSLCYGMGGSAGGMLMGVAINERPELFHGVIAQVPFVDVLTTMLDESIPLTTGEFEEWGNPQDIEYYDYMKSYSPYDNVKAQDYPHLLVTTGLHDSQVQYWEPAKWVAKLRELKTDQRLLLLCTDMDSGHGGKSGRFKSYEGVALEFAFLIGLAQGTLHSA | not soluble |
| MSETFFHLLGPRTQPNDDSFSMNPLPITCQVNDEPSMAALEQCAHSPQVIALLNELQHQLSQRQPPLGEVLAVDLLNLNADDRHFINTLLGEGEVSVRIQQADDSESEIQEAIFCGLWRVRRRRGEKLLEDKLEAGCAPLALWQAATQNLLPTDSLLPPPIDGLMNGLPLAHELLAHVRNPDAQPHSINLTQLPISEADRLFLSRLCGPGNIQIRTIGYGESYINATGLRHVWHLRCTDTLKGPLLESYEICPIPEVVLAAPEDLVDSAQRLSEVCQWLAEAAPT | not soluble |
| SEDCCMLPYYTAQSSPAMGMFNTSMGKLQRQLYKGEYTIFRYAPMFESDFIQISKRGEVIDVHNRARMVTMGIVRTSPCLTLPDVMLLARPAAVCDNARCGPATQKRESPPAEILELTRLLPLMFVKITIHNSVKKQLHLKLATGRSFYLQLCPPSDASEDLFVHWENLVYILRPPVEAYSDTRAILAGNTLDSSVLEEVQRSPVGYAMKFCEEKEQFRISRLHMNAEMFGSTYCDYTIEI | soluble |
